In the RNAGym collection of RNA variant scans (doi:10.1073/pnas.2313332121):
This sample holds only a part of the variants without activity.

B1: TPR 5TU (parent)
chain: GGAUCUUCUCGAUCUAACAAAAAAGACAAAUCUGCCACAAAGCUUGAGAGCAUCUUCGGAUGCAGAGGCGGCAGCCUUCGGUGGCGCGAUAGCGCCAACGUUCUCAACUAUGACACGCAAAACGCGUGCUCCGUUGAAUGGAGUUUAUCAUG

Variants of: B1
Test: polymerase ribozyme fitness, log enrichment relative to wild type (log ratio); higher = more active; in vitro selection for triplet polymerase activity
In short: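 Only genotypes with ≥10 input reads and ≥1 read per output were kept after Illumina sequencing of input and output libraries. These libraries were PCR-built, transcribed mutants of each subunit of a heterodimeric triplet polymerase ribozyme, each put through one triplicate in vitro selection round with frozen incubation at −7 °C, gel excision of extended constructs, streptavidin-bead capture and RT-PCR. Fitness is a logarithmic ratio of genotype enrichment to wild-type enrichment, from inverse-variance-weighted replicate averages, with the logarithm in base 2.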

Point of comparison: GGAUCUUCUCGAUCUAACAAAAAAGACAAAUCUGCCACAAAGCUUGAGAGCAUCUUCGGAUGCAGAGACGGCAGCCUUCGGUGGCGCGAUAGCGCCAACGUUCUCAACUAUGACACGCAAAACGCGUGCCCCGUUGAAUGGAGUUUAUCAUG [G68A U130C], “polymerase ribozyme fitness (log ratio)” value -3.95. Against it:
- GGAUCUUCUCGAUCUAACAAAAAAGACAAAUCUGCCACAAAGCUUGAGAGCAUCUUCGGAUGCAGAGUCGGCAGCCUUCGGUGGCGCGAUGGCGCCAACGUUCUCAACUAUGACACGCAAAACGCGUGCUCCGUUGAAUGGAGUUUAUCAUG [G68U A91G] — lower, ≤ -4.2
- GGAUCUUCUCGAUCUAACAAAAAAGACAAAUCUGCCACAAAGCUUGAGAGCAUCUUCGGAUGCAGAGACGGCAGCCUUCGGUGGCGCGAUAGCCCCAACGUUCUCAACUAUGACACGCAAAACGCGUGCUCCGUUGAAUGGAGUUUAUCAUG [G68A G94C] — within 0.2 log units, -4.03
- GGAUCUUCUCGAUCUAACAAAAAAGACAAAUCUGCCACAAAGCUUGAGAGCAUCUUCGGAUGCAGAGUCGGCAGCCUUCGGUGGCGCGAUAGCGCCAACGUUCUCAACUAUGACACGCAAAACGCGUGCUCCGUUGAAUGGAGUUUAUCGUG [G68U A150G] — lower, ≤ -4.2
- GGAUCUUCUCGAUCUAACAAAAAAGACAAAUCUGCCACAAAGCUUGAGAGCAUCUUCGGAUGCAGAGCCGGCAGCCUUCGUUGGCGCGAUAGCGCUAACGUUCUCAACCAUGACACGCAAAACGCGUGCUCCGUUGAAUGGAGUUUAUCAUG [G68C G81U C96U U109C] — lower, ≤ -4.2
- GGAUCUUCUCGAUCUAACAAAAAAGACAAAUCUGCCACAAAGCUUGAGAGCAUCUUCGGAUGCAGAGCCGGCAGCCUUCGGUGGCUCGUUAGCGCAAACGUUCUCAACUUUGAUACGCAAAACGCGUGCUCCGUUGAAUGGAGUUUAUCAUG [G68C G86U A89U C96A A110U C114U] — lower, ≤ -4.2
- GGAUCUUCUCGAUCUAACAAAAAAGACAAAUCUGCCACAAAGCUUGAGAGCAUCUUCGGAUGCAGAGACGGCAGCCUUCGGUGUCGCGAUAGCGCCAACGUUCUCAACUAUGACACGCAAAACGCGUGCUGCGUUGAAUGGAUUUUAUCAUG [G68A G84U C131G G143U] — lower, ≤ -4.2
- GGAUCUUCUCGAUCUAACAAAAAAGACAAAUCUGCCACAAAGCUUGAGAGCAUCUUCGGAUGCAGAGUCGGCAGCCUUCGGUGGCGCGAUAGCGCCAACGUUCUCAACUAUGACACGCAAAACGCGUGUUCCGUUGAAUGGAGUUUAUCAUG [G68U C129U] — lower, ≤ -4.2
- GGAUCUUCUCGAUCUAACAAAAAAGACAAAUCUGCCACAAAGCUUGAGAGCAUCUUCGGAUGCAGAGCCGGCAGCCUUCGGUGGCGCGCUAGCGCAAACGUUCUCAACUAUGGCACGCAAAACCCGUGCUCCGCUGAAUGGAGUUUAUCAUG [G68C A89C C96A A113G G124C U134C] — lower, ≤ -4.2
- GGAUCUUCUCGAUCUAACAAAAAAGACAAAUCUGCCACAAAGCUUGAGAGCAUCUUCGGAUGCAGAGUCGGCAGCCUUCGGUGGCGCGAUAGCGCCAACGUUCUCAACUAUGACACGCAAAACGCGUGCUCCGUUAAAUGGAGUUUAUCAUG [G68U G136A] — within 0.2 log units, -3.9
- GGAUCUUCUCGAUCUAACAAAAAAGACAAAUCUGCCACAAAGCUUGAGAGCAUCUUCGGAUGCAGAGUCGGCAGCCUUCGGUGGGGCGAUAGCGCCAACGUUCUCAACUAUGACACGCAAAACGCGUGCUCCGUUGAAAGGAGUGGAUCAUG [G68U C85G U139A U145G U146G] — lower, ≤ -4.2
- GGAUCUUCUCGAUCUAACAAAAAAGACAAAUCUGCCACAAAGCUUGAGAGCAUCUUCGGAUGCAGAGCCGGCAGCCUUCGGUGGCGCGAUAGCGCCAACGUUCUCAACUAUGACACGCAAAACGCGUGCUCCGUUUAAUGGGGUUUAUCAUG [G68C G136U A142G] — lower, ≤ -4.2
- GGAUCUUCUCGAUCUAACAAAAAAGACAAAUCUGCCACAAAGCUUGAGAGCAUCUUCGGAUGCAGAGCCGGCAGCCUUCGGUGGCGCGGUAGCACCAACGUUCUCAACUAUGUCACGCAAAACGCGUGCUCCGUUGAAUGGAGUUUAUCAUG [G68C A89G G94A A113U] — lower, ≤ -4.2
- GGAUCUUCUCGAUCUAACAAAAAAGACAAAUCUGCCACAAAGCUUGAGAGCAUCUUCGGAUGCAGAGCCGGCAGCCUUCGGUGGCGCGAUAGUGCCAACGUUCUCAACUAUGACACGCAAAACGCGUGCUCCGUUGAAUAGAGUUUGUCAUG [G68C C93U G140A A147G] — lower, ≤ -4.2
- GGAUCUUCUCGAUCUAACAAAAAAGACAAAUCUGCCACAAAGCUUGAGAGCAUCUUCGGAUGCAGAGCCGGCAGCCUUCGGUGGCGCGAUAGCGCGAACGUUCUCAACUAUGACACGCAAAACGCGUGCUCCGUUGAAAGGAGUUUAUCAUG [G68C C96G U139A] — lower, ≤ -4.2
- GGAUCUUCUCGAUCUAACAAAAAAGACAAAUCUGCCACAAAGCUUGAGAGCAUCUUCGGAUGCAGAGCCGGCAGCCUUCGGUGGCGCGAUAGUGCCAACGUUCUCAACUAUGUCACGCAAAACGCGUGCUCCGUUGAAUGGAGUUUAUCAUG [G68C C93U A113U] — lower, ≤ -4.2
- GGAUCUUCUCGAUCUAACAAAAAAGACAAAUCUGCCACAAAGCUUGAGAGCAUCUUCGGAUGCAGAGCCGGCAGCCUUCGGUGGCGCGAUAGCGCCAAGGUUCUCAACUAUGACACGCAAAACGCGUGCUCCGUUGAAUGGAGUUUAUCAUG [G68C C99G] — lower, ≤ -4.2
- GGAUCUUCUCGAUCUAACAAAAAAGACAAAUCUGCCACAAAGCUUGAGAGCAUCUUCGGAUGCAGAGCCGGCAGCCUUCGGUUGCGCGAUAACGCCAACGUACUCAACUAUGACACGCAAAACGCGUGCUCCGUUGGAUGGGGUUUAUCAUG [G68C G83U G92A U102A A137G A142G] — lower, ≤ -4.2
- GGAUCUUCUCGAUCUAACAAAAAAGACAAAUCUGCCACAAAGCUUGAGAGCAUCUUCGGAUGCAGAGCCGGCAGCCUUCGGUCGCGCGAUAGCGCCAACGUUCUCAACUAUGACACGCAAAACGCGUGCUCCGUUGAAUGGAGUUUAUCAUG [G68C G83C] — lower, ≤ -4.2
